Experimental data: patent US20140087995A1 (published 2014)
Numbered stars: 1 amine (or outer) side, 2 acyl side, 3 side chain; on linkers, the order of the positions; unused ones are H or OH. Bridge positions count the residues as written; N and C are the ends. Square brackets hold non-standard residues; d marks the D form. Side chains are listed from the residue outwards. Ends that are not written are not given here. * marks the point of attachment. C20 diacid = O=C(O)CCCCCCCCCCCCCCCCCCC(=O)*; γGlu = O=C(O)[C@H](CCC(=O)[*:2])N[*:1]

T1: rat calcitonin receptor (rat, UniProt P32214 25-516)
T1 construct: whole, on cells; Used as membranes prepared from the transfected cells (Assay VIII); also called rCTR; rat calcitonin (a) receptor
T1 sequence (looked up): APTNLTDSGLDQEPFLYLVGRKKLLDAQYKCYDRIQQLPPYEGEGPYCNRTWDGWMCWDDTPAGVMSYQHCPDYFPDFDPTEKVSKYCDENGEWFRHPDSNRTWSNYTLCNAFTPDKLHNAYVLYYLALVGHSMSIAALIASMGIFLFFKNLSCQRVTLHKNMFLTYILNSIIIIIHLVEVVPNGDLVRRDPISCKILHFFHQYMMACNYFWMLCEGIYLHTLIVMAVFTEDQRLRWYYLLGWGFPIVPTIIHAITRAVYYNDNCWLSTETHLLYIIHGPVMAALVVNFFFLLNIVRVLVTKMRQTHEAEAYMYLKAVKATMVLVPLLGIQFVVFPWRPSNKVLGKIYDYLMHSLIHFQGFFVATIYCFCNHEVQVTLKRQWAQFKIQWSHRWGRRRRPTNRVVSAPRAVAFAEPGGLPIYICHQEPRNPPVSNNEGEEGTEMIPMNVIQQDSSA

T2: rat amylin receptor (rat calcitonin receptor + rat RAMP 3) (rat, UniProt P32214 25-516; Q9JJ73 23-147)
T2 construct: whole, on cells; Used as membranes prepared from the transfected cells (Assay VI); also called rAmylin-R; rat amylin 3(a) receptor
T2 sequence (looked up) 1: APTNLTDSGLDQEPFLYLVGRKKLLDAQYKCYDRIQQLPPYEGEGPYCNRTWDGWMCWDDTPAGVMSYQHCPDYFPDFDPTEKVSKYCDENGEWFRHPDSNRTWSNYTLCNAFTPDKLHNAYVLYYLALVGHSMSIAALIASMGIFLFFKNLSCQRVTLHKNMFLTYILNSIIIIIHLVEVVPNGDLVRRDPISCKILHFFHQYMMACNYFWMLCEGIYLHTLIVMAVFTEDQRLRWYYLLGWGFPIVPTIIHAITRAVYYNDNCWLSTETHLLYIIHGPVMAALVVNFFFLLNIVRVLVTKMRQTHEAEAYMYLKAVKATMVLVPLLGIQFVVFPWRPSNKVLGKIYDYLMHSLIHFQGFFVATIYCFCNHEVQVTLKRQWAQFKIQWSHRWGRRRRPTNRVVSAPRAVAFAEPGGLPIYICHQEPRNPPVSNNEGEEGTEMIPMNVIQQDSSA
T2 sequence (looked up) 2: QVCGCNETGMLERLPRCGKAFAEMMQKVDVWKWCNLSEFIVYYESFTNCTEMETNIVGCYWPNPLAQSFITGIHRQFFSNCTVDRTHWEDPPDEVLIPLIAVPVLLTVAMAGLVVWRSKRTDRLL

T3: human calcitonin receptor (human, UniProt P30988 25-474)
T3 sequence (looked up): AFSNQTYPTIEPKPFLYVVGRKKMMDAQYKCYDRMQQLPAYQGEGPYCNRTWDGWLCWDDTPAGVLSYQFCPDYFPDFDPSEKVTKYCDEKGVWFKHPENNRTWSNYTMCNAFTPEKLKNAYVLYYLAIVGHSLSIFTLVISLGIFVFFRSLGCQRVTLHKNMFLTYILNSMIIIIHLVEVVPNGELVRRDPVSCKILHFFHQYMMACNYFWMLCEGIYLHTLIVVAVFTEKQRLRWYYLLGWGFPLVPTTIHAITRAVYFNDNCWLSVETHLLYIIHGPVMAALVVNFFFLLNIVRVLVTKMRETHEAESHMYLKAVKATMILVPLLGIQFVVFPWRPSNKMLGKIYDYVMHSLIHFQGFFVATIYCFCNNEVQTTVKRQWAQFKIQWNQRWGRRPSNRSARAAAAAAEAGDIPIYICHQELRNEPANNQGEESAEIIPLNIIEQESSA


Assays:
rat calcitonin receptor = molecular target: T1, rat calcitonin receptor; test: SPA competition binding, displacement of 125I-calcitonin from membranes of BHK tk'ts 13 cells transfected with rat calcitonin receptor (Assay VIII)
[1] = molecular target: T2, rat amylin receptor (rat calcitonin …); test: SPA competition binding, displacement of 125I-rat amylin from membranes of BHK tk'ts 13 cells transfected with rat calcitonin receptor + rat RAMP 3 (Assay VI)
[2] = molecular target: T3, human calcitonin receptor; test: cell-based or functional assay

| IC50 (rat calcitonin receptor) | IC50 [1] | hCTR funct. EC50 (pM) [2] | Binder |
| --- | --- | --- | --- |
| 536 nM | 1.69 nM |  | K([γGlu-γGlu-C20 diacid])CNTATCATQRLA[dD]FLRHSSPNFGAIPSSTNVGSRTY-NH2 (disulfide 2-7; N-terminus assumed; SMILES CC[C@H](C)[C@H](NC(=O)[C@H](C)NC(=O)CNC(=O)[C@H](Cc1ccccc1)NC(=O)[C@H](CC(N)=O)NC(=O)[C@@H]1CCCN1C(=O)[C@H](CO)NC(=O)[C@H](CO)NC(=O)[C@H](Cc1c[nH]cn1)NC(=O)[C@H](CCCNC(=N)N)NC(=O)[C@H](CC(C)C)NC(=O)[C@H](Cc1ccccc1)NC(=O)[C@@H](CC(=O)O)NC(=O)[C@H](C)NC(=O)[C@H](CC(C)C)NC(=O)[C@H](CCCNC(=N)N)NC(=O)[C@H](CCC(N)=O)NC(=O)[C@@H](NC(=O)[C@H](C)NC(=O)[C@@H]1CSSC[C@H](NC(=O)[C@@H](N)CCCCNC(=O)CC[C@H](NC(=O)CC[C@H](NC(=O)CCCCCCCCCCCCCCCCCCC(=O)O)C(=O)O)C(=O)O)C(=O)N[C@@H](CC(N)=O)C(=O)N[C@@H]([C@@H](C)O)C(=O)N[C@@H](C)C(=O)N[C@@H]([C@@H](C)O)C(=O)N1)[C@@H](C)O)C(=O)N1CCC[C@H]1C(=O)N[C@@H](CO)C(=O)N[C@@H](CO)C(=O)N[C@H](C(=O)N[C@@H](CC(N)=O)C(=O)N[C@H](C(=O)NCC(=O)N[C@@H](CO)C(=O)N[C@@H](CCCNC(=N)N)C(=O)N[C@H](C(=O)N[C@@H](Cc1ccc(O)cc1)C(N)=O)[C@@H](C)O)C(C)C)[C@@H](C)O, not restated for each compound) |
| 30.9 nM |  |  | KCNTATCATQRLADFLRHSSPNFGAIPSSTNVGSRTY-NH2 (disulfide 2-7) [[Asp14,Arg17,Pro21,Pro27,Arg35]-h-amylin] |
|  |  | 1730 pM | {C20 diacid-γGlu}-GRCNTATCATQRLAHFLRHSSPNFGAIPSSTNVGHNTY-NH2 (disulfide 3-8; SMILES CC[C@H](C)[C@H](NC(=O)[C@H](C)NC(=O)CNC(=O)[C@H](Cc1ccccc1)NC(=O)[C@H](CC(N)=O)NC(=O)[C@@H]1CCCN1C(=O)[C@H](CO)NC(=O)[C@H](CO)NC(=O)[C@H](Cc1c[nH]cn1)NC(=O)[C@H](CCCNC(=N)N)NC(=O)[C@H](CC(C)C)NC(=O)[C@H](Cc1ccccc1)NC(=O)[C@H](Cc1c[nH]cn1)NC(=O)[C@H](C)NC(=O)[C@H](CC(C)C)NC(=O)[C@H](CCCNC(=N)N)NC(=O)[C@H](CCC(N)=O)NC(=O)[C@@H](NC(=O)[C@H](C)NC(=O)[C@@H]1CSSC[C@H](NC(=O)[C@H](CCCNC(=N)N)NC(=O)CNC(=O)CC[C@H](NC(=O)CCCCCCCCCCCCCCCCCCC(=O)O)C(=O)O)C(=O)N[C@@H](CC(N)=O)C(=O)N[C@@H]([C@@H](C)O)C(=O)N[C@@H](C)C(=O)N[C@@H]([C@@H](C)O)C(=O)N1)[C@@H](C)O)C(=O)N1CCC[C@H]1C(=O)N[C@@H](CO)C(=O)N[C@@H](CO)C(=O)N[C@H](C(=O)N[C@@H](CC(N)=O)C(=O)N[C@H](C(=O)NCC(=O)N[C@@H](Cc1c[nH]cn1)C(=O)N[C@@H](CC(N)=O)C(=O)N[C@H](C(=O)N[C@@H](Cc1ccc(O)cc1)C(N)=O)[C@@H](C)O)C(C)C)[C@@H](C)O, 38 residues; also called compound 100) |
